{"source": "patent US20240252534A1", "about": "(AUTOLUS, published 2024)", "key": {"[1]": {"biological_target": "T1, human PSMA expressed on cells (human, UniProt Q04609 1-750)", "T1 construct": "whole, on cells; also called SupT1-PSMA; SupT1 cells expressing PSMA", "T1 sequence (Q04609 whole entry)": "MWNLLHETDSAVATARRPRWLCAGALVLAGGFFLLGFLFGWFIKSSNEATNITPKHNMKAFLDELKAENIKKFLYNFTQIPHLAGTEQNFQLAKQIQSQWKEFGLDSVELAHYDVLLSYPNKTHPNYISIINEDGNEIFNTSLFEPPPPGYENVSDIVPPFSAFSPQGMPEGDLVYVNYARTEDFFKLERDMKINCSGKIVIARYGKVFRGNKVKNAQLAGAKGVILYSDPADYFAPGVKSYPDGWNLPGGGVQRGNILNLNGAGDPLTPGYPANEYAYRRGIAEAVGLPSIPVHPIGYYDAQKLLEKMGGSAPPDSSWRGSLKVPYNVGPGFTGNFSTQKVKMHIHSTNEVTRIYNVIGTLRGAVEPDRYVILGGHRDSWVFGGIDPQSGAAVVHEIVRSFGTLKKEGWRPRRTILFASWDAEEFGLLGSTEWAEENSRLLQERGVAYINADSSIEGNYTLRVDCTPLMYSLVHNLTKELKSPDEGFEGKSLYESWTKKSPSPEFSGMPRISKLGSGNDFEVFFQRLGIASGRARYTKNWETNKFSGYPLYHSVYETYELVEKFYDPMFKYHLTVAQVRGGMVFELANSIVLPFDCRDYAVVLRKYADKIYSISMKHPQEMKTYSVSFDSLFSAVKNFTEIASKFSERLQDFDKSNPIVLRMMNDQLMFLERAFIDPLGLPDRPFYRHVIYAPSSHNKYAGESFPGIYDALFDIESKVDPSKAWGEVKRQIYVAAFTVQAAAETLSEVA", "test": "flow cytometry, MFI against concentration, SupT1-PSMA clone 30 (high)"}, "[2]": {"biological_target": "T1, human PSMA expressed on cells", "test": "flow cytometry histograms, detection aMu-Fc 647, concentration and axis values not given"}, "[3]": {"biological_target": "T2, Recombinant PSMA-His (sino biologicals) (UniProt Q04609 44-750)", "T2 construct": "also called soluble PSMA; recombinant soluble PSMA; not shown: His tag", "T2 sequence (Q04609 44-750 limits assumed)": "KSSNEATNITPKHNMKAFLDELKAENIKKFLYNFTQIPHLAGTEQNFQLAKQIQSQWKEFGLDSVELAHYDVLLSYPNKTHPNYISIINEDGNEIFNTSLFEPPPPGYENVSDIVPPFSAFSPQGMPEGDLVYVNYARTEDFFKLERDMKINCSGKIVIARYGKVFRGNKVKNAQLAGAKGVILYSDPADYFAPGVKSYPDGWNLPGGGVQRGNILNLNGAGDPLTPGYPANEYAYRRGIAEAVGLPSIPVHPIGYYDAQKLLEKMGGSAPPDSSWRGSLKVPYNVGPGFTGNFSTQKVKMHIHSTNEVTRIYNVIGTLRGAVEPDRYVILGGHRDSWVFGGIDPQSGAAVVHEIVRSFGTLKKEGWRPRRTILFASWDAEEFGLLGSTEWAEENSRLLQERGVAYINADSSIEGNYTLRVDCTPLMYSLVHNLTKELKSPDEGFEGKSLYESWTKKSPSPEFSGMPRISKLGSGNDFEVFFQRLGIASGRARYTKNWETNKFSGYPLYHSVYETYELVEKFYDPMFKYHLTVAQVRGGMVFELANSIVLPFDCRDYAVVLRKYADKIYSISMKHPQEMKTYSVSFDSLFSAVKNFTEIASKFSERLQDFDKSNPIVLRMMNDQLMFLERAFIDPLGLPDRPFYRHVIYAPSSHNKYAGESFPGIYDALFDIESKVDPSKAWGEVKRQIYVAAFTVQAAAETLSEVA", "test": "SPR, Biacore T200; VHH-Fc captured on Protein A chip, PSMA-His as analyte, 1:1 Langmuir fit", "protocol": "(§1) Kinetic affinity for soluble PSMA was determined using Biacore T200 instrument. Recombinant purified antibodies were captured on a Protein A chip #7 at 10 μl/min for 60 s, aiming at 100 RU. Recombinant PSMA-His (sino biologicals) dialysed in HBS-P+ buffer was used as analyte from 1 μM with 1:2 serial dilutions for 10 points and flown at 30 μl/min for 150 s with 300 s dissociation time. A double reference subtraction was applied. Sensograms fitted with 1:1 Langmuir model.\nAffinity was determined by surface plasmon resonance on a Biacore T200 instrument against recombinant soluble PSMA. Affinities were measured in the nM range for both antibodies (Table 3)"}, "[4]": {"biological_target": "T2, Recombinant PSMA-His (sino biologicals)", "test": "SPR, Biacore T200, pH 6; antibody captured on Protein A chip, PSMA-His as analyte, 1:1 Langmuir fit", "protocol": "as §1, with “soluble PSMA at different pH was determined” for “soluble PSMA was determined”, “A chip #6, pre-equilibrated the required PH (pH7.4, pH7, pH6.5 and pH6) using buffered HBS-P+, at 10” for “A chip #7 at 10”, “dialysed in HBS-P+buffer and adjusted to the required PH was used” for “dialysed in HBS-P+ buffer was used”"}, "[5]": {"biological_target": "T2, Recombinant PSMA-His (sino biologicals)", "test": "SPR, Biacore T200, pH 7; antibody captured on Protein A chip, PSMA-His as analyte, 1:1 Langmuir fit", "protocol": "as §1, with “soluble PSMA at different pH was determined” for “soluble PSMA was determined”, “A chip #6, pre-equilibrated the required PH (pH7.4, pH7, pH6.5 and pH6) using buffered HBS-P+, at 10” for “A chip #7 at 10”, “dialysed in HBS-P+buffer and adjusted to the required PH was used” for “dialysed in HBS-P+ buffer was used”"}, "[6]": {"biological_target": "T2, Recombinant PSMA-His (sino biologicals)", "test": "SPR, Biacore T200, pH 6.5; antibody captured on Protein A chip, PSMA-His as analyte, 1:1 Langmuir fit", "protocol": "as §1, with “soluble PSMA at different pH was determined” for “soluble PSMA was determined”, “A chip #6, pre-equilibrated the required PH (pH7.4, pH7, pH6.5 and pH6) using buffered HBS-P+, at 10” for “A chip #7 at 10”, “dialysed in HBS-P+buffer and adjusted to the required PH was used” for “dialysed in HBS-P+ buffer was used”"}, "[7]": {"biological_target": "T2, Recombinant PSMA-His (sino biologicals)", "test": "SPR, Biacore T200, pH 7.4; antibody captured on Protein A chip, PSMA-His as analyte, 1:1 Langmuir fit", "protocol": "as §1, with “soluble PSMA at different pH was determined” for “soluble PSMA was determined”, “A chip #6, pre-equilibrated the required PH (pH7.4, pH7, pH6.5 and pH6) using buffered HBS-P+, at 10” for “A chip #7 at 10”, “dialysed in HBS-P+buffer and adjusted to the required PH was used” for “dialysed in HBS-P+ buffer was used”"}}, "data": [{"binder": "dAb clone B8, C Myc tagged (VHH, Monomeric dAb from IPTG-induced TG1 supernatant, detected with anti-C Myc; also called B08; not shown: C-Myc tag) VHH: QVQLQQSGGGLVQAGGSLRLSCAASGRTYGRYVMGWFRQIPGKEREFVAAISWSGSNTNYADSVKGRFTISRDNAKNTLYLQMNSLKPEDTAVYYCAASGQWIIPTTARGYDDWGQGTQVTVSS", "values": [{"measurement": "EC50 (read off the curve)", "setting": "[1]", "value": "~1", "unit": "µg/mL"}]}, {"binder": "dAb clone G7, C Myc tagged (VHH, Monomeric dAb from IPTG-induced TG1 supernatant, detected with anti-C Myc; also called G07; not shown: C-Myc tag) VHH: QVQLQESGGGSVQAGGSLRLSCAASERTFSTYGTGWFRQAPGKEREFVAGISGRGGYTSYIDSVKGRFTTSRDNAKNTVYLQMNSLKPEDTAVYYCAADRRMVWGTVRSPDEYDSWGQGTQVTVSS", "values": [{"measurement": "EC50 (read off the curve)", "setting": "[1]", "value": "~0.7", "unit": "µg/mL"}]}, {"binder": "NGS2 dAb in murine IgG2A-Fc format (Fc fusion, also called clone 2; dAb 2; not shown: murine IgG2A Fc) QVQLQESGGGWVQAGGSLRLSCAASGRTSRTYTMGWFRQAPGKDGVFVAGITWSTWSSDKTQYLDSVNSRFTISRDNARNTVYLQMNNLKPEDTAVYYCAATPRYYGVAVPTTRGPYDYWGQGTQVTVSS", "values": [{"measurement": "binding result", "setting": "[2]", "value": "binds"}]}, {"binder": "B08 VHH-Fc (Fc fusion, also called B8; clone B8; not shown: Fc part of the VHH-Fc format) QVQLQQSGGGLVQAGGSLRLSCAASGRTYGRYVMGWFRQIPGKEREFVAAISWSGSNTNYADSVKGRFTISRDNAKNTLYLQMNSLKPEDTAVYYCAASGQWIIPTTARGYDDWGQGTQVTVSS", "values": [{"measurement": "Kd", "setting": "[3]", "value": 212, "unit": "nM"}]}, {"binder": "7A12 humanised (antibody, V domains shown, Tested as 'recombinant purified antibody' captured on a Protein A chip; also called hu7A12; AU number 42396) VH: QVQLVQSGAEVKKPGASVKVSCKASGYTFTSSWMNWVRQAPGQGLEWMGRIYPGDGDTNYAQKFQGRVTMTRDTSISTAYMELSRLRSDDTAVYYCARGTGYLWYFDVWGQGTMVTVSS VL: EIVLTQSPATLSLSPGERATLSCRASQDINENLAWYQQKPGQAPRLLIYYTSNRATGIPARFSGSGSGRDFTLTISSLEPEDFAVYYCQQYDNLPFTFGQGTKVEIKR", "values": [{"measurement": "Kd", "setting": "[4]", "value": 0.532, "unit": "nM"}, {"measurement": "Kd", "setting": "[5]", "value": 3.3, "unit": "nM"}, {"measurement": "Kd", "setting": "[6]", "value": 1.71, "unit": "nM"}, {"measurement": "Kd", "setting": "[7]", "value": 3.66, "unit": "nM"}]}, {"binder": "G07 VHH-Fc (Fc fusion, also called G7; clone G7; not shown: Fc part of the VHH-Fc format) QVQLQESGGGSVQAGGSLRLSCAASERTFSTYGTGWFRQAPGKEREFVAGISGRGGYTSYIDSVKGRFTTSRDNAKNTVYLQMNSLKPEDTAVYYCAADRRMVWGTVRSPDEYDSWGQGTQVTVSS", "values": [{"measurement": "Kd", "setting": "[3]", "value": 316, "unit": "nM"}]}, {"binder": "7A12 (antibody, V domains shown, Tested as 'recombinant purified antibody' captured on a Protein A chip; also called mu7A12; AU number 30531) VH: QFQLQQSGPELVKPGASVKISCKASGYAFSSSWMNWVRQRPGKGLEWIGRIYPGDGDTTYNGNFKDKATLTAAKSSSTAYIQINSLTSEDSAVYFCARGTGYLWYFDVWGAGTTVTVSS VL: DIQMTQSPSSLSTSLGGKVTITCKASQDINENVAWYQHKPGKGPRLLIWYTSALQSGIPSRFSGSGSGRDYSFSISNLEPEDIATYYCQQYDNLPFTFGSGTKLEIKR", "values": [{"measurement": "Kd", "setting": "[4]", "value": 0.574, "unit": "nM"}, {"measurement": "Kd", "setting": "[5]", "value": 1.77, "unit": "nM"}, {"measurement": "Kd", "setting": "[6]", "value": 1.02, "unit": "nM"}, {"measurement": "Kd", "setting": "[7]", "value": 2.29, "unit": "nM"}]}]}
